Assay results published in patent US20120322122, “COMPOSITIONS AND METHODS FOR IMPROVED PLANT FEEDSTOCK” (published 2012).

T1: PvMYB4a (Panicum virgatum)
T1 chain: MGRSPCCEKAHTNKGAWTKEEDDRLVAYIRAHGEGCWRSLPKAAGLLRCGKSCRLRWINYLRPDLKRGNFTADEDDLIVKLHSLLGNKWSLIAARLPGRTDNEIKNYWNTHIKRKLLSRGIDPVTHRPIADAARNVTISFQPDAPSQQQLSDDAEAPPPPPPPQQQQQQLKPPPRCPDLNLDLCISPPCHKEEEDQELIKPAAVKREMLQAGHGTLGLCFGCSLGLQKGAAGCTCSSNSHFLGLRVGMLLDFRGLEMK

B1: AC-I x3 EMSA probe (dsDNA)
DNA 1: CGGTACCAGTCCACCTACCGCCACCTACCGCCACCTACCGCTGTTCTCGA
DNA 2: TCGAGAACAGCGGTAGGTGGCGGTAGGTGGCGGTAGGTGGACTGGTACCG
B2: AC-II x3 EMSA probe (dsDNA)
DNA 1: CGGTACCAGTCCACCAACCGCCACCAACCGCCACCAACCGCTGTTCTCGA
DNA 2: TCGAGAACAGCGGTTGGTGGCGGTTGGTGGCGGTTGGTGGACTGGTACCG
B3: AC-III x3 EMSA probe (dsDNA)
DNA 1: CCAGTCCACCTAACTCTACCTAACTCTACCTAACGCTGTTC
DNA 2: GAACAGCGTTAGGTAGAGTTAGGTAGAGTTAGGTGGACTGG
B4: AC-IV x3 EMSA probe (dsDNA)
DNA 1: CCAGTCCACCAAACTCTACCAAACTCTACCAAACGCTGTTC
DNA 2: GAACAGCGTTTGGTAGAGTTTGGTAGAGTTTGGTGGACTGG
B5: AtGA20ox2 promoter AC-IV (dsDNA)
DNA 1: ATTATAAGAAAGATTAAAAAACCAAACAAATGTACACTAACATGACT
DNA 2: AGTCATGTTAGTGTACATTTGTTTGGTTTTTTAATCTTTCTTATAAT
B6: AtGA20ox2 promoter AC-II (dsDNA)
DNA 1: CTTAACTCTTAACTGGTCGAACCAACCATGAATGATTTGGGCATAAT
DNA 2: ATTATGCCCAAATCATTCATGGTTGGTTCGACCAGTTAAGAGTTAAG

Target: T1, PvMYB4a
Assay: EMSA; 5 mM MgCl2, 50 mM KCl, pH 7.5, 4 C
Conditions: tags: N-terminal His (pDEST17), E. coli BL21 DE3; label: biotin
Description: PvMYB4a was cloned into the pDEST17 expression vector by the Gateway cloning method (Invitrogen). After sequencing, the plasmid was transformed into BL21 DE3 E. coli competent cells. IPTG was added to induce expression of PvMYB4. The recombinant protein was purified with the MagneHis™ Protein Purification System (Promega Corporation, Madison, Wis.) then concentrated with an Amicon Ultra-15 Centrifugal Filter (Millipore Corporation, Billerica, Mass.). About 700-1000 ng of purified PvMYB4 protein was used for EMSA in each reaction. The probes were labeled by annealing biotin-labeled olignucleotides or PCR products, then purified with a gel extraction kit (QIAGEN). Binding conditions were 12 mM Tris-HCl (pH 7.5), 20 mM NaCl, 50 mM KCl, 5 mM MgCl₂, 1 mM DTT, 0.2 mM EDTA, 2.5% glycerol, 1 mM β-ME, 0.05% NP-40 and 2 fmol biotin-labeled probes. The samples were loaded and run in a 6% DNA retardant gel (Invitrogen) in the cold room after the reactions had been incubated at 4° C. for 30 minutes. The DNA was transferred onto Nylon membranes and signal detected with a LightShift® Chemiluminescent EMSA Kit (Thermo Fisher Scientific Inc. Rockford, Ill.) using standard protocols.

Binder | binding result
B1 | binds
B2 | binds
B3 | binds
B4 | no binding

Target: T1, PvMYB4a
Assay: EMSA; 5 mM MgCl2, 50 mM KCl, pH 7.5, 4 C
Conditions: tags: N-terminal His (pDEST17), E. coli BL21 DE3; label: biotin
Remark: another data set of the same source
Description: The present and previous studies indicate that subfamily 4 MYB proteins directly bind the AC cis-elements in downstream monolignol biosynthesis gene promoters (Legay et al., 2007; Sonbol et al., 2009). […] Gel shift assays were performed to test for possible direct binding of PvMYB4 to different AtGA20-ox2 promoter regions in vitro. Analysis of the AtGA20-ox2 promoter 1500 bp upstream of the transcription start site identified an AC-II (−1200 bp) and an AC-IV (−150 bp) element. […] This is consistent with the direct binding of PvMYB4 to the synthetic AC-II elements (FIG. 4F). Binding of PvMYB4 to the AC elements in the GA20-ox promoter appears to inhibit expression of the gene.
PvMYB4a was cloned into the pDEST17 expression vector by the Gateway cloning method (Invitrogen). After sequencing, the plasmid was transformed into BL21 DE3 E. coli competent cells. IPTG was added to induce expression of PvMYB4. The recombinant protein was purified with the MagneHis™ Protein Purification System (Promega Corporation, Madison, Wis.) then concentrated with an Amicon Ultra-15 Centrifugal Filter (Millipore Corporation, Billerica, Mass.). About 700-1000 ng of purified PvMYB4 protein was used for EMSA in each reaction. […] The DNA was transferred onto Nylon membranes and signal detected with a LightShift® Chemiluminescent EMSA Kit (Thermo Fisher Scientific Inc. Rockford, Ill.) using standard protocols.

Binder | binding result
B5 | no binding
B6 | binds
